From patent US20200079833A1 (AstraZeneca / MedImmune, published 2020)
Starred links: 1 amine or outer side, 2 acyl side, 3 side chain; linkers in the order of their positions; H or OH if unused. Non-standard residues stand in square brackets, D forms with d. Groups on a side chain read outwards from the residue. Primed or numbered codes have the meaning given here. No end group written: not given here. *: point of attachment. γGlu = O=C(O)[C@H](CCC(=O)[*:2])N[*:1]; αMeF = C[C@](N)(Cc1ccccc1)C(=O)O; αMeK = C[C@](N)(CCCCN)C(=O)O; Lauroyl = CCCCCCCCCCCC(=O)*; αMeS = C[C@](N)(CO)C(=O)O; PEG2′ = not defined here; Aib = CC(C)(N)C(=O)O

Tests used:
Test in all cases: cell-based or functional assay
[1] = target: GLP-1 receptor (GLP-1R), primary cAMP assay cell line (human, UniProt P43220 24-463)
[2] = target: glucagon receptor (GCGR), primary cAMP assay cell line (human, UniProt P47871 26-477)
[3] = target: T1, glucose-dependent insulinotropic peptide (gastric inhibitory polypeptide) receptor (GIPR), primary cAMP assay … (human, UniProt P48546 22-466)
T1 sequence (looked up): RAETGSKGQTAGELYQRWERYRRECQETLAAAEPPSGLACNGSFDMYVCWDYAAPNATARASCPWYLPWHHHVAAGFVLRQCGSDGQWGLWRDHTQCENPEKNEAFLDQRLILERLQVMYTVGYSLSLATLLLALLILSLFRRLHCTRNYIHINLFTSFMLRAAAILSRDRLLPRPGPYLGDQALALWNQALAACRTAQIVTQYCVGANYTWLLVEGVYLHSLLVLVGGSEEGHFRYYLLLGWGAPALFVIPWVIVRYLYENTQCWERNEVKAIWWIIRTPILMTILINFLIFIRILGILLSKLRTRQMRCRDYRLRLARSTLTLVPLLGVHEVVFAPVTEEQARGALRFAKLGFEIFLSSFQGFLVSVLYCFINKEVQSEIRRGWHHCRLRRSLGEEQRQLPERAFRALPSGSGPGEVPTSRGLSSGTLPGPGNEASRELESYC

[4] = target: T2, GLP-1R in the INS1e assay (UniProt P32301 22-463, limits assumed)
T2 sequence (looked up): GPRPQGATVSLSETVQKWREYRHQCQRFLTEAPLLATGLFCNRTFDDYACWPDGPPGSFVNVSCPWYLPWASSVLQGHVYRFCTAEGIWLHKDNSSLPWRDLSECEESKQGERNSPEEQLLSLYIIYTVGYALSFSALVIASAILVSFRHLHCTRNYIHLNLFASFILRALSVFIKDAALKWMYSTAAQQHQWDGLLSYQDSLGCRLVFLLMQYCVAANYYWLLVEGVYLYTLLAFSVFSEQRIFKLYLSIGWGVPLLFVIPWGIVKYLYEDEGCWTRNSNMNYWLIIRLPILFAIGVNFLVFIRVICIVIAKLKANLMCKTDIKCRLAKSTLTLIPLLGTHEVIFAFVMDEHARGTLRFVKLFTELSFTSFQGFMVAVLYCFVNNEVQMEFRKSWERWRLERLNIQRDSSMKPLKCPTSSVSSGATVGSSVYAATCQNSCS

glucagon receptor (GCGR), primary cAMP assay cell line, sequence (P47871 26-477): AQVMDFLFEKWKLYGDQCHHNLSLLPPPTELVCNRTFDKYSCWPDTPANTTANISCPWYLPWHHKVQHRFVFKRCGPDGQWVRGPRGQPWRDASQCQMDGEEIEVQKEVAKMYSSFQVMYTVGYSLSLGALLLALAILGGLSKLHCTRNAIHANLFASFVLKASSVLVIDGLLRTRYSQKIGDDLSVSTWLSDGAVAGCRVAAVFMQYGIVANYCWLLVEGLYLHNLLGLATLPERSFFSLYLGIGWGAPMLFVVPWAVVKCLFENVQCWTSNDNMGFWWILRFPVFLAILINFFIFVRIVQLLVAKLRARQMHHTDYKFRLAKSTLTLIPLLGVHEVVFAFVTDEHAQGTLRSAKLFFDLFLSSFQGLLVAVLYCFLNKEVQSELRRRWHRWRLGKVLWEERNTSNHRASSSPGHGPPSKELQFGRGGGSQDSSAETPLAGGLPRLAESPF

## H[Aib]EGS[αMeF]TSDV[αMeS]SK([PEG2′-PEG2′-γGlu-Lauroyl])LEGEAA[αMeK]K([PEG2′-PEG2′-γGlu-Lauroyl])FIAFK([PEG2′-PEG2′-γGlu-Lauroyl])VEGG-NH2 [SEQ ID NO: 482]
[1]
  cAMP Primary assay EC50, Mean pM GLP-1R: 36.3 pM
  cAMP Primary assay EC50, n1: 28.3 pM
  cAMP Primary assay EC50, n2: 44.2 pM
[2]
  cAMP Primary assay EC50, n1: 20 nM
  cAMP Primary assay EC50, n2: 20 nM
[3]
  cAMP Primary assay EC50, n1: 20 nM
  cAMP Primary assay EC50, n2: 20 nM
[4]
  cAMP INS1e assay EC50, Mean pM GLP-1R: 5860 pM
  cAMP INS1e assay EC50, n1: 8.57 nM
  cAMP INS1e assay EC50, n2: 3.15 nM
